Test results from IntAct's records for PubMed 19966303.

B1: Serine/threonine-protein kinase YPK1 (Saccharomyces cerevisiae), P12688 (parent)
chain: MYSWKSKFKFGKSKEEKEAKHSGFFHSSKKEEQQNNQATAGEHDASITRSSLDRKGTINPSNSSVVPVRVSYDASSSTSTVRDSNGGNSENTNSSQNLDETANIGSTGTPNDATSSSGMMTIKVYNGDDFILPFPITSSEQILNKLLASGVPPPHKEISKEVDALIAQLSRVQIKNQGPADEDLISSESAAKFIPSTIMLPGSSTLNPLLYFTIEFDNTVATIEAEYGTIAKPGFNKISTFDVTRKLPYLKIDVFARIPSILLPSKTWQQEMGLQDEKLQTIFDKINSNQDIHLDSFHLPINLSFDSAASIRLYNHHWITLDNGLGKINISIDYKPSRNKPLSIDDFDLLKVIGKGSFGKVMQVRKKDTQKVYALKAIRKSYIVSKSEVTHTLAERTVLARVDCPFIVPLKFSFQSPEKLYFVLAFINGGELFYHLQKEGRFDLSRARFYTAELLCALDNLHKLDVVYRDLKPENILLDYQGHIALCDFGLCKLNMKDDDKTDTFCGTPEYLAPELLLGLGYTKAVDWWTLGVLLYEMLTGLPPYYDEDVPKMYKKILQEPLVFPDGFDRDAKDLLIGLLSRDPTRRLGYNGADEIRNHPFFSQLSWKRLLMKGYIPPYKPAVSNSMDTSNFDEEFTREKPIDSVVDEYLSESVQKQFGGWTYVGNEQLGSSMVQGRSIR
B2: Phospholipid-transporting ATPase DNF1 (Saccharomyces cerevisiae), P32660 (parent)
chain: MSGTFHGDGHAPMSPFEDTFQFEDNSSNEDTHIAPTHFDDGATSNKYSRPQVSFNDETPKNKREDAEEFTFNDDTEYDNHSFQPTPKLNNGSGTFDDVELDNDSGEPHTNYDGMKRFRMGTKRNKKGNPIMGRSKTLKWARKNIPNPFEDFTKDDIDPGAINRAQELRTVYYNMPLPKDMIDEEGNPIMQYPRNKIRTTKYTPLTFLPKNILFQFHNFANVYFLVLIILGAFQIFGVTNPGLSAVPLVVIVIITAIKDAIEDSRRTVLDLEVNNTKTHILEGVENENVSTDNISLWRRFKKANSRLLFKFIQYCKEHLTEEGKKKRMQRKRHELRVQKTVGTSGPRSSLDSIDSYRVSADYGRPSLDYDNLEQGAGEANIVDRSLPPRTDCKFAKNYWKGVKVGDIVRIHNNDEIPADIILLSTSDTDGACYVETKNLDGETNLKVRQSLKCTNTIRTSKDIARTKFWIESEGPHSNLYTYQGNMKWRNLADGEIRNEPITINNVLLRGCTLRNTKWAMGVVMFTGGDTKIMLNSGITPTKKSRISRELNFSVVINFVLLFILCFVSGIANGVYYDKKGRSRFSYEFGTIAGSAATNGFVSFWVAVILYQSLVPISLYISVEIIKTAQAAFIYGDVLLYNAKLDYPCTPKSWNISDDLGQVEYIFSDKTGTLTQNVMEFKKCTINGVSYGRAYTEALAGLRKRQGIDVETEGRREKAEIAKDRDTMIDELRALSGNSQFYPEEVTFVSKEFVRDLKGASGEVQQRCCEHFMLALALCHSVLVEANPDNPKKLDLKAQSPDEAALVATARDVGFSFVGKTKKGLIIEMQGIQKEFEILNILEFNSSRKRMSCIVKIPGLNPGDEPRALLICKGADSIIYSRLSRQSGSNSEAILEKTALHLEQYATEGLRTLCIAQRELSWSEYEKWNEKYDIAAASLANREDELEVVADSIERELILLGGTAIEDRLQDGVPDCIELLAEAGIKLWVLTGDKVETAINIGFSCNLLNNEMELLVIKTTGDDVKEFGSEPSEIVDALLSKYLKEYFNLTGSEEEIFEAKKDHEFPKGNYAIVIDGDALKLALYGEDIRRKFLLLCKNCRAVLCCRVSPSQKAAVVKLVKDSLDVMTLAIGDGSNDVAMIQSADVGIGIAGEEGRQAVMCSDYAIGQFRYLARLVLVHGRWSYKRLAEMIPEFFYKNMIFALALFWYGIYNDFDGSYLYEYTYMMFYNLAFTSLPVIFLGILDQDVNDTISLVVPQLYRVGILRKEWNQRKFLWYMLDGLYQSIICFFFPYLVYHKNMIVTSNGLGLDHRYFVGVYVTTIAVISCNTYVLLHQYRWDWFSGLFIALSCLVVFAWTGIWSSAIASREFFKAAARIYGAPSFWAVFFVAVLFCLLPRFTYDSFQKFFYPTDVEIVREMWQHGHFDHYPPGYDPTDPNRPKVTKAGQHGEKIIEGIALSDNLGGSNYSRDSVVTEEIPMTFMHGEDGSPSGYQKQETWMTSPKETQDLLQSPQFQQAQTFGRGPSTNVRSSLDRTREQMIATNQLDNRYSVERARTSLDLPGVTNAASLIGTQQNN

Variants of: B1
Conditions: with fpk1_yeast FPK1, P53739
Target sequence in this assay (P53739 whole entry): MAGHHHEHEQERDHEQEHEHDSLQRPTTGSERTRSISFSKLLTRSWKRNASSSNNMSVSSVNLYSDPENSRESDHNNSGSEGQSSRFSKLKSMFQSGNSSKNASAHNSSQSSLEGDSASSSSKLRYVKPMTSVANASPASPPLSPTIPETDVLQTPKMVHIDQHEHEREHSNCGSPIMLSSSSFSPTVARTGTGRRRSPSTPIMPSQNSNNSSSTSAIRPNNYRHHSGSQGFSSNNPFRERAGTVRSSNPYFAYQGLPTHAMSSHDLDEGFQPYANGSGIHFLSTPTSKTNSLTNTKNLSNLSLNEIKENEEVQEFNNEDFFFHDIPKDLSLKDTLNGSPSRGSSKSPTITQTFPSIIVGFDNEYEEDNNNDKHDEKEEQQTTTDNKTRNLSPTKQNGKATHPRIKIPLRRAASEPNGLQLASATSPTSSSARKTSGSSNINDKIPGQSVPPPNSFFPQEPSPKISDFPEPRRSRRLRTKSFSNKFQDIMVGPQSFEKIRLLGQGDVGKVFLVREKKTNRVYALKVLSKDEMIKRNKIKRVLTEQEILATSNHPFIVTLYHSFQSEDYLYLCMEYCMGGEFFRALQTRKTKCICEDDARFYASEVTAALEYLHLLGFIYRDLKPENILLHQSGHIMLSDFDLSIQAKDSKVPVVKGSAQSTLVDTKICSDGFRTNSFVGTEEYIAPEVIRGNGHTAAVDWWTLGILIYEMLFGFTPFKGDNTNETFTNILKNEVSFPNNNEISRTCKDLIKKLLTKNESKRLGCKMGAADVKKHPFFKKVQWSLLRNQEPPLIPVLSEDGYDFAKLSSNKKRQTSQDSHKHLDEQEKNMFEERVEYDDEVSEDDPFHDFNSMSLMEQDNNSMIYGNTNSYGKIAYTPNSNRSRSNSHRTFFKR

Row | effect of a mutation on the interaction | Variant
1 | disrupting interaction | S51A;S71A

Variants of: B2
Conditions: with fpk1_yeast FPK1, P53739
Target sequence in this assay (P53739 whole entry): as above

Row | effect of a mutation on the interaction | Variant
2 | decreasing interaction | S1526A;S1552A
